Reference: publication PMC3934934, “The Self-Interaction of a Nodavirus Replicase Is Enhanced by Mitochondrial Membrane Lipids” (PLoS ONE, 2014)

Columns and labels:
Settings in all cases: one partner purified
[1] = molecular target: T1, MBP-tagged full-length (FL) WhNV protein A (Wuhan nodavirus (WhNV), UniProt Q3KSM3 1-1014); experiment: pull-down
T1 construct: also called MBP-protA; 1–1014 MBP/protA; source: E. coli strain TB1, purified (amylose resin); not shown: MBP, N-terminal, kept
T1 sequence: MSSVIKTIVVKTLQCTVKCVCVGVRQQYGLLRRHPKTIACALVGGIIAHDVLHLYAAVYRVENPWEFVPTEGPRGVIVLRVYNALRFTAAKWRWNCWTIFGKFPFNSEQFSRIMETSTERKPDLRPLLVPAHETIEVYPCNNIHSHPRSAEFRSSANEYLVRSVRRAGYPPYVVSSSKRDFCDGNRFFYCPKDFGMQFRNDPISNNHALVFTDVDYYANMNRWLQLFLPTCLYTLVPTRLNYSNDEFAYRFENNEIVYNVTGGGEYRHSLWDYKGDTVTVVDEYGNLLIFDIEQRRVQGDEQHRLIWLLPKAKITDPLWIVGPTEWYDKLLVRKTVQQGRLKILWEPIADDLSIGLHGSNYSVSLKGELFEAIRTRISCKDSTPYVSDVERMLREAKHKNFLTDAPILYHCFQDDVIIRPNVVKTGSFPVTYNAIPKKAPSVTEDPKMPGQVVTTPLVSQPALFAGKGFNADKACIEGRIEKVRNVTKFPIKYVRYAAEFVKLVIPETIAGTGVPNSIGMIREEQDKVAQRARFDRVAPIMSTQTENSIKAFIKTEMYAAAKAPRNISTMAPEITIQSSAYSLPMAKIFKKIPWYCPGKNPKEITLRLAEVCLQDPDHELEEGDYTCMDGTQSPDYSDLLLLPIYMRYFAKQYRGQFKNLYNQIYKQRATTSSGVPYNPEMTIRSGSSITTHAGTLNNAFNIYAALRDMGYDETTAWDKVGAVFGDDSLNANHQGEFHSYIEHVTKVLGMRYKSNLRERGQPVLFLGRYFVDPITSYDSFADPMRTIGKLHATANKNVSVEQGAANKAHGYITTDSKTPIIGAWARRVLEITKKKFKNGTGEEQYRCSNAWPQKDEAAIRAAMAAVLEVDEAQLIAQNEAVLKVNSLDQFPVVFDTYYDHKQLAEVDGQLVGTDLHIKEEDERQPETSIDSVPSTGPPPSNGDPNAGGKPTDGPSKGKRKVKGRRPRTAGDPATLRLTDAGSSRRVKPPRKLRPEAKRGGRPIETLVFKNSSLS

[2] = molecular target: T2, MBP-protA fragment aa 481–659 (Wuhan nodavirus (WhNV), UniProt Q3KSM3 481-659); experiment: pull-down; MBP fusion protein (1 µM) held on amylose resin, His-tagged protein (1 µM) in vitro translated in rabbit reticulocyte lysate; room temperature, 4 hrs; no lipids; Western blot with anti-His; signals given as % of FL to FL protein A self-interaction
T2 construct: source: E. coli strain TB1, purified (amylose resin); not shown: MBP, N-terminal, kept
T2 sequence: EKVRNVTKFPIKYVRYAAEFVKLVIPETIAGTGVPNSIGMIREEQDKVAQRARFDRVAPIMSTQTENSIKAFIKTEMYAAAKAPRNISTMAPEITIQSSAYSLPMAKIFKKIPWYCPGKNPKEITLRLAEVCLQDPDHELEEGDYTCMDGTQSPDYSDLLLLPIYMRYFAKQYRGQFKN

[3] = molecular target: T3, MBP-protA fragment aa 1–659 (Wuhan nodavirus (WhNV), UniProt Q3KSM3 1-659); experiment: as above
T3 construct: also called 1–659 MBP/protA; source: E. coli strain TB1, purified (amylose resin); not shown: MBP, N-terminal, kept
T3 sequence: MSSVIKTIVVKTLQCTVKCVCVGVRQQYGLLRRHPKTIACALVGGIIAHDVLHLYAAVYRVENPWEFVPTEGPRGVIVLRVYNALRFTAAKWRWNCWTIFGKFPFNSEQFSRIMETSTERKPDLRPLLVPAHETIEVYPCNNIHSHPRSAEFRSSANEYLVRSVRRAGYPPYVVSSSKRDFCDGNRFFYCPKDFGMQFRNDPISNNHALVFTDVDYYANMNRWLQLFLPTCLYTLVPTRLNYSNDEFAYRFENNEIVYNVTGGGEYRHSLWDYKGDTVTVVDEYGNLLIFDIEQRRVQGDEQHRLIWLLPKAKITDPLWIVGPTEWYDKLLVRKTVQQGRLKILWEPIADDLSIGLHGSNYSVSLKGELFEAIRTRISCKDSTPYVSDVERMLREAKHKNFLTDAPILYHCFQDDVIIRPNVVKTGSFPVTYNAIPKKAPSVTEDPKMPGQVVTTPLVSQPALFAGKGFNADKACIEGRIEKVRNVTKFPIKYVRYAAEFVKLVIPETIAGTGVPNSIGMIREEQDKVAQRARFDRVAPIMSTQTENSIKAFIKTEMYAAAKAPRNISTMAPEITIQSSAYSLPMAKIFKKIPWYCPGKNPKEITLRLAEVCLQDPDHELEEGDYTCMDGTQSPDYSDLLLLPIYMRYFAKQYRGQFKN

[4] = molecular target: T4, MBP-protA fragment aa 255–480 (Wuhan nodavirus (WhNV), UniProt Q3KSM3 255-480); experiment: as above
T4 construct: source: E. coli strain TB1, purified (amylose resin); not shown: MBP, N-terminal, kept
T4 sequence: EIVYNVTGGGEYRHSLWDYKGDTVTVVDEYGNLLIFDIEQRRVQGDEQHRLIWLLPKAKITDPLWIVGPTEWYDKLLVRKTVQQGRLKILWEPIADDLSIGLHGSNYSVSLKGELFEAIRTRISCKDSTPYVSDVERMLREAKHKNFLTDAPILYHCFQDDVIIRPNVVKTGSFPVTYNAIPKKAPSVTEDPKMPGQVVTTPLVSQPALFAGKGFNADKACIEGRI

B1: His-tagged WhNV protein A, in vitro translated (natural protein)
chain: T1 sequence
notes: also called His-protA; FL His-protA; source: in vitro translated in nuclease-treated rabbit reticulocyte lysates
For B1, the “fold of the self-interaction without MMLs, at 1 µg/µl MMLs” value [1] was roughly 4.6 fold, the “fold of the self-interaction without MMLs, at 2 µg/µl MMLs” value [1] was roughly 9 fold and the “fold of the self-interaction without MMLs, at 5 µg/µl MMLs” value [1] was roughly 12 fold. For the same binder, the “self-interaction efficiency, % of FL to FL protein A self-interaction” value (shortened to “self-interaction efficiency, % of FL”) [2] was 17%, the “self-interaction efficiency, % of FL” value [3] was 96% and the “self-interaction efficiency, % of FL” value [4] was 52%.
